± gives the standard deviation of the averaged measurements.
Tested on: Saccharomyces cerevisiae
Experiment: protein stability index of tFT-peptide fusion (C-terminal peptide) (PSI (0-1 scale)); higher = more stable (slower turnover)
Conditions: temperature: 30 C
Procedure: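 MPS profiling in S. cerevisiae of the yeast C-terminome library: the last 12 aa of each annotated ORF are fused to the C-terminus of a sfGFP-mCherry timer, after a GGGS linker. Cells are FACS-sorted into 8 mCherry/sfGFP bins and deep-sequenced. PSI runs from 0 (unstable) to 1 (stable); wild type and das1Δ backgrounds, two technical replicates each.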

[1] = genetic background: das1 deletion

Row | Sequence | protein stability index [1] | protein stability index (genetic background: wild type)
1 | KMIESLKSKLKE [CIN5 C-terminal 12 aa] | 0.693 ± 0.02 | 0.686 ± 0.027
2 | PKGDIEASIAEE [MPH3 C-terminal 12 aa] | 0.6877 ± 0.00033 | 0.677 ± 0.016
3 | IDEMYRGGISMN [AIM32 C-terminal 12 aa] | 0.693 ± 0.013 | 0.69 ± 0.024
4 | SLDGDTYFIIRS [YDL158C C-terminal 12 aa] | 0.713 ± 0.024 | 0.688 ± 0.033
5 | RWELVRESWREL [HSV2 C-terminal 12 aa] | 0.703 ± 0.03 | 0.786 ± 0.086
6 | NPNSLPLQPIAN [MSC2 C-terminal 12 aa] | 0.704 ± 0.018 | 0.691 ± 0.015
7 | GKLLVPLVLYQI [YDR182W-A C-terminal 12 aa] | 0.673 ± 0.019 | 0.535 ± 0.0071
8 | AATNNLFIFSAL [CDC55 C-terminal 12 aa] | 0.732 ± 0.0084 | 0.713 ± 0.073
9 | NIATIASERSRP [YPL102C C-terminal 12 aa] | 0.723 ± 0.046 | 0.683 ± 0.007
10 | SLRIEAIKKGFV [SPS1 C-terminal 12 aa] | 0.727 ± 0.048 | 0.675 ± 0.029
11 | TRGPRRKLPTRV [BSP1 C-terminal 12 aa] | 0.6863 ± 0.0066 | 0.672 ± 0.06
12 | ARLDKSLTFEDQ [RIM20 C-terminal 12 aa] | 0.6983 ± 0.0055 | 0.699 ± 0.038
13 | ISVSSGIENFAT [YJL202C C-terminal 12 aa] | 0.692 ± 0.042 | 0.654 ± 0.019
14 | FRCKFKERKVDG [REP1 C-terminal 12 aa] | 0.682 ± 0.0088 | 0.674 ± 0.015
15 | SMDEEFKNMDCI [SIR3 C-terminal 12 aa] | 0.706 ± 0.0084 | 0.701 ± 0.05
16 | DKKLARAGNNAI [CUE3 C-terminal 12 aa] | 0.695 ± 0.0092 | 0.769 ± 0.0094
17 | QHDEKPFYKRMF [HXT8 C-terminal 12 aa] | 0.723 ± 0.026 | 0.666 ± 0.045
18 | NDTIKLNQSIYS [ASK10 C-terminal 12 aa] | 0.701 ± 0.02 | 0.7048 ± 0.0015
19 | LDNILADLELDV [YIL001W C-terminal 12 aa] | 0.72202 ± 0.00032 | 0.684 ± 0.046
20 | QMICPSLLGIRN [YHR130C C-terminal 12 aa] | 0.721 ± 0.013 | 0.6986 ± 0.0069
21 | PKWCSTMCSTAT [YDR445C C-terminal 12 aa] | 0.69 ± 0.03 | 0.743 ± 0.049
22 | NEEMIRKLKAAK [JID1 C-terminal 12 aa] | 0.674 ± 0.015 | 0.662 ± 0.021

Row | Sequence | protein stability index [1] | protein stability index (genetic background: wild type)
23 | ELERDITISREY [MIP1 C-terminal 12 aa] | 0.701 ± 0.028 | 0.698 ± 0.068
24 | LMYIYQAFTTQD [GDT1 C-terminal 12 aa] | 0.684 ± 0.011 | 0.663 ± 0.036
25 | IEVGADSYAEEF [TUB3 C-terminal 12 aa] | 0.689 ± 0.018 | 0.671 ± 0.014
26 | AYFALREKKFLL [YIL012W C-terminal 12 aa] | 0.694 ± 0.019 | 0.641 ± 0.018
27 | LLYLYDNDHTST [GPI19 C-terminal 12 aa] | 0.72 ± 0.058 | 0.6907 ± 0.0034
28 | PNLSRANFTRNK [RSA1 C-terminal 12 aa] | 0.695 ± 0.019 | 0.699 ± 0.014
29 | SYRVMQPNEFES [YGL214W C-terminal 12 aa] | 0.7 ± 0.016 | 0.711 ± 0.11
30 | VIDLDNSVAREV [MDL1 C-terminal 12 aa] | 0.7044 ± 0.0069 | 0.64 ± 0.007
31 | KGKLITKVNNEE [YML131W C-terminal 12 aa] | 0.648 ± 0.029 | 0.628 ± 0.04
32 | FKCVHTPCNVYI [YER078W-A C-terminal 12 aa] | 0.679 ± 0.0076 | 0.665 ± 0.037
33 | KLLLNELRSFCV [PCL10 C-terminal 12 aa] | 0.72 ± 0.009 | 0.694 ± 0.028
34 | LDYLSSYINRRI [FLP1 C-terminal 12 aa] | 0.7058 ± 0.00092 | 0.6948 ± 0.0047
35 | EEFLTLLGRRSI [FOL2 C-terminal 12 aa] | 0.708 ± 0.01 | 0.723 ± 0.012
36 | FHSMAHLSLHQY [YOR394C-A C-terminal 12 aa] | 0.7202 ± 0.00097 | 0.478 ± 0.091
37 | SNKKLKSQWLIK [EMC1 C-terminal 12 aa] | 0.722 ± 0.017 | 0.665 ± 0.0081
38 | HGTAKALAAAKK [RPL29 C-terminal 12 aa] | 0.7098 ± 0.0054 | 0.6697 ± 0.0058
39 | GNSVNPYNGRIN [SGF73 C-terminal 12 aa] | 0.718 ± 0.019 | 0.735 ± 0.0081
40 | KGVIGTNPPITH [MPC3 C-terminal 12 aa] | 0.7045 ± 0.0018 | 0.719 ± 0.081
41 | SIDQFRGKLNSI [URA1 C-terminal 12 aa] | 0.701 ± 0.015 | 0.688 ± 0.013
42 | NRVPKWMKLSKK [UBX4 C-terminal 12 aa] | 0.676 ± 0.012 | 0.679 ± 0.027
43 | LVHIKMENGIVS [IZH2 C-terminal 12 aa] | 0.65319 ± 0.00027 | 0.693 ± 0.019
44 | SFDVLAKVPNAA [RPA190 C-terminal 12 aa] | 0.692 ± 0.011 | 0.655 ± 0.011
